Experimental findings from patent publication US20100166708 are described below.

For the data set, the target named is T1, tumor necrosis factor receptor (TNFR)-associated factor 1, Q13077.
T1 chain: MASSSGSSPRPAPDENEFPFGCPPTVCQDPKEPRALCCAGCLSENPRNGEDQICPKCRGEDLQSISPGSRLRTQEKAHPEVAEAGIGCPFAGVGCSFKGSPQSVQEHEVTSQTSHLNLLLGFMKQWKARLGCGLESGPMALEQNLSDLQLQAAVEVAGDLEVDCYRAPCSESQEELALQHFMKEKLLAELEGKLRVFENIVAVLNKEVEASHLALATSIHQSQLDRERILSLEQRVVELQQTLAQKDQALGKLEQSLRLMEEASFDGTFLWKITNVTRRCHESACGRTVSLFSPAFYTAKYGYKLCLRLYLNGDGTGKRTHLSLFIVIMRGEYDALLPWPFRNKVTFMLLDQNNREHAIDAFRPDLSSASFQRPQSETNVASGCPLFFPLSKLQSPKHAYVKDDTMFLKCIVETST

B1: caspase 8 (protein)
chain: MDFSRNLYDIGEQLDSEDLASLKFLSLDYIPQRKQEPIKDALMLFQRLQEKRMLEESNLSFLKELLFRINRLDLLITYLNTRKEEMERELQTPGRAQISAYRVMLYQISEEVSRSELRSFKFLLQEEISKCKLDDDMNLLDIFIEMEKRVILGEGKLDILKRVCAQINKSLLKIINDYEEFSKERSSSLEGSPDEFSNGEELCGVMTISDSPREQDSESQTLDKVYQMKSKPRGYCLIINNHNFAKAREKVPKLHSIRDRNGTHLDAGALTTTFEELHFEIKPHDDCTVEQIYEILKIYQLMDHSNMDCFICCILSHGDKGIIYGTDGQEAPIYELTSQFTGLKCPSLAGKPKVFFIQACQGDNYQKGIPVETDSEEQPYLEMDLSSPQTRYIPDEADFLLGMATVNNCVSYRNPAEGTWYIQSLCQSLRERCPRGDDILTILTEVNYEVSNKDDKKNMGKQMPQPTFTLRKKLVFPSD
On to B1, for which the “cleavage of TRAF1 to N-terminal TRAF1 (western blot, normal human keratinocytes)” value was “The overexpression of TRIF caused caspase 8-dependent cleavage of TRAF1 to release N-terminal TRAF1 (N-TRAF1) (FIG. 14e), which was prevented by caspase 8 inhibitor (FIG. 14f)”.
